Non-standard residues stand in square brackets, D forms with d. Primed or numbered codes have the meaning given here. No end group written: not given here. *: point of attachment. FITC′ = fluorescein isothiocyanate (fluorescein label attached to the Lys side chain); FITC″ = fluorescein isothiocyanate, fluorescein thiocarbamoyl on Lys NZ; FITC = O=C1OC2(c3ccc(O)cc3Oc3cc(O)ccc32)c2ccc(NC(=S)*)cc21; Benzoyl(2,3-Cl2) = O=C(c1cccc(Cl)c1Cl)*; Phe(4-F) = N[C@@H](Cc1ccc(F)cc1)C(=O)O; Tle = CC(C)(C)[C@H](N)C(=O)O; acyl = not defined here; Bz = O=C(c1ccccc1)*; βAla = NCCC(=O)O
B1: CNI93 (peptide)
peptide: XIXITQHLSXKFXRRRRQ
modifications: not fully specified; sequence of peptide 14 (Dcb-ZIZIT-Gln-His-leu-Ser) with cyclic CPP9, cyclo(fΦRrRrQ), attached to the C-terminus through an amide bond and a βAla-Lys linker; Z = Tle; D-Leu
notes: A biotinylated form was used in the macrophage experiment
B2: compound 44 (CNI104): (DCNA)-Tle-Chg-Bhv-Ile-Thr-Gln-His-(D-Leu)-Ser-βAla-Lys{[cyclo-(Gln-(D-Arg)-Arg-(D-Arg)-Arg-(2-Nal)-(D-Phe)]}-NH2 (peptide)
peptide: XXXITQHLSXKQRRRRXF
modifications: not fully specified; N-terminal DCNA (2,3-dichlorisonicotinamide); Tle; Chg = L-cyclohexylglycine; Bhv = L-β-hydroxyvaline; D-Leu; βAla; Lys side chain carrying cyclo-(Gln-(D-Arg)-Arg-(D-Arg)-Arg-(2-Nal)-(D-Phe)); C-terminal amide
B3: CNI95 labeled at the C-terminus with FITC (peptide)
peptide: XIXITQHLSKFXRRRRQ
modifications: not fully specified; sequence of peptide 14 (Dcb-ZIZIT-Gln-His-leu-Ser) conjugated to CPP9, cyclo(fΦRrRrQ), through a miniPEG-Lys linker; FITC at the C-terminus; Z = Tle; D-Leu
notes: also called FITC-labeled CNI95
B4: CNI95 (unlabeled) (peptide)
peptide: XIXITQHLSKFXRRRRQ
modifications: not fully specified; sequence of peptide 14 (Dcb-ZIZIT-Gln-His-leu-Ser) conjugated to CPP9, cyclo(fΦRrRrQ), through a miniPEG-Lys linker; Z = Tle; D-Leu
B5: CNI103: (DCNA)-Tle-Ile-Bhv-Ile-Thr-Gln-His-(D-Leu)-Ser-miniPEG-Lys{[cyclo-(Gln-(D-Arg)-Arg-(D-Arg)-Arg-(2-Nal)-(D-Phe)]}-NH2 (peptide)
peptide: XIXITQHLSKQRRRRXF
modifications: not fully specified; N-terminal DCNA (2,3-dichlorisonicotinamide; Table 8 prints DCN); Tle at 1; Bhv = L-β-hydroxyvaline at 3 (Table 8 prints Hva); D-Leu; miniPEG; Lys side chain carrying cyclo-(Gln-(D-Arg)-Arg-(D-Arg)-Arg-(2-Nal)-(D-Phe)); C-terminal amide
notes: also called CN103; compound 43
B6: peptide 10: acyl-ZIZITGPHEEYK(FITC)-NH2 (peptide)
peptide: [Tle]I[Tle]ITGPHEEYK(FITC)-NH2
modifications: not fully specified (N-terminus); printed as acyl-ZIZITGPHEEYK(FITC)-NH2; also: N-terminal acyl group unspecified (halogenated/alkylated benzoyl, drawing only)
B7: peptide 8: acyl-ZIZITGPHEEYK(FITC)-NH2 (peptide)
peptide: acyl-[Tle]I[Tle]ITGPHEEYK(FITC″)-NH2
modifications: reading uncertain; also: N-terminal acyl: halogenated and/or alkylated benzoyl, not named, printed as peptide 8: acyl-ZIZITGPHEEYK(FITC)-NH2
B8: peptide 11: acyl-ZIZITGPHEEYK(FITC)-NH2 (peptide)
peptide: [Tle]I[Tle]ITGPHEEYK(FITC)-NH2
modifications: not fully specified (N-terminus); printed as acyl-ZIZITGPHEEYK(FITC)-NH2; also: N-terminal acyl group unspecified (halogenated/alkylated benzoyl, drawing only)
B9: peptide 7: acyl-ZIZITGPHEEYK(FITC)-NH2 (peptide)
peptide: acyl-[Tle]I[Tle]ITGPHEEYK(FITC″)-NH2
modifications: reading uncertain; also: N-terminal acyl: halogenated and/or alkylated benzoyl, not named, printed as peptide 7: acyl-ZIZITGPHEEYK(FITC)-NH2
B10: control: (DCB)-Tle-Ile-Tle-Ile-Thr-Gln-His-(D-Leu)-Ser-(β-Ala)-Lys{[cyclo-(Gln-(D-Arg)-Arg-(D-Arg)-Arg-(2-Nal)-(D-Phe)]}-NH2 (peptide)
peptide: XIXITQHLSXKQRRRRXF
modifications: not fully specified; N-terminal DCB (2,3-dichlorobenzoyl); Tle at 1 and 3; D-Leu; β-Ala; Lys side chain carrying cyclo-(Gln-(D-Arg)-Arg-(D-Arg)-Arg-(2-Nal)-(D-Phe)); C-terminal amide
notes: It is therefore kept as a separate molecule
B11: CNI101: (DCNA)-Tle-Ile-Tle-Ile-Thr-Gln-His-(D-Leu)-Ser-miniPEG-Lys{[cyclo-(Gln-(D-Arg)-Arg-(D-Arg)-Arg-(2-Nal)-(D-Phe)]}-NH2 (peptide)
peptide: XIXITQHLSKQRRRRXF
modifications: not fully specified; N-terminal DCNA (2,3-dichlorisonicotinamide; Table 8 prints DCN, 2,3-dichloro-4-pyridinyl); Tle at 1 and 3; D-Leu; miniPEG; Lys side chain carrying cyclo-(Gln-(D-Arg)-Arg-(D-Arg)-Arg-(2-Nal)-(D-Phe)); C-terminal amide
notes: also called compound 41; 41
B12: CNI88 (peptide)
peptide: XIXITYEXGAKFXRRRRQ
modifications: not fully specified; sequence of peptide 13 (Dcb-ZIZIT-Tyr-glu-Fpa-Gly) with cyclic CPP9, cyclo(fΦRrRrQ), attached to the C-terminus through an amide bond and a βAla-Lys linker; Z = Tle; D-Glu; Fpa = …
B13: compound 46: (DCNA)-Tle-Ile-Psa-Ile-Thr-Gln-His-(D-Leu)-Ser-miniPEG-Lys{[cyclo-(Gln-(D-Arg)-Arg-(D-Arg)-Arg-(2-Nal)-(D-Phe)]}-NH2 (peptide)
peptide: XIXITQHLSKQRRRRXF
modifications: not fully specified; N-terminal DCNA; Tle; Psa = L-penicillamine sulfonic acid; D-Leu; miniPEG; Lys side chain carrying cyclo-(Gln-(D-Arg)-Arg-(D-Arg)-Arg-(2-Nal)-(D-Phe)); C-terminal amide
B14: compound 51: (DFNA)-Tle-Chg-Psa-Ile-Thr-Gln-His-(D-Leu)-Ser-miniPEG-Lys{[cyclo-(Gln-(D-Arg)-Arg-(D-Arg)-Arg-(2-Nal)-(D-Phe)]}-NH2 (peptide)
peptide: XXXITQHLSKQRRRRXF
modifications: not fully specified; N-terminal DFNA (2,3-difluoroisonicotinamide); Tle; Chg = L-cyclohexylglycine; Psa = L-penicillamine sulfonic acid; D-Leu; miniPEG; Lys side chain carrying cyclo-(Gln-(D-Arg)-Arg-(D-Arg)-Arg-(2-Nal)-(D-Phe)); C-terminal amide
B15: compound 45: (DCNA)-Tle-Chg-Bhv-Ile-Thr-Gln-His-(D-Leu)-Ser-miniPEG-Lys{[cyclo-(Gln-(D-Arg)-Arg-(D-Arg)-Arg-(2-Nal)-(D-Phe)]}-NH2 (peptide)
peptide: XXXITQHLSKQRRRRXF
modifications: not fully specified; N-terminal DCNA; Tle; Chg = L-cyclohexylglycine; Bhv = L-β-hydroxyvaline; D-Leu; miniPEG; Lys side chain carrying cyclo-(Gln-(D-Arg)-Arg-(D-Arg)-Arg-(2-Nal)-(D-Phe)); C-terminal amide
B16: compound 48: (DFNA)-Tle-Ile-Bhv-Ile-Thr-Gln-His-(D-Leu)-Ser-miniPEG-Lys{[cyclo-(Gln-(D-Arg)-Arg-(D-Arg)-Arg-(2-Nal)-(D-Phe)]}-NH2 (peptide)
peptide: XIXITQHLSKQRRRRXF
modifications: not fully specified; N-terminal DFNA (2,3-difluoroisonicotinamide); Tle; Bhv = L-β-hydroxyvaline; D-Leu; miniPEG; Lys side chain carrying cyclo-(Gln-(D-Arg)-Arg-(D-Arg)-Arg-(2-Nal)-(D-Phe)); C-terminal amide

Biological target: T1, calcineurin expressed as the glutathione S-transferase fusion protein (GST-CN) (UniProt Q08209 2-347)
T1 construct: also called CN-GST; recombinant GST-CN; not shown: glutathione S-transferase (GST) fusion partner
T1 sequence (Q08209 2-347): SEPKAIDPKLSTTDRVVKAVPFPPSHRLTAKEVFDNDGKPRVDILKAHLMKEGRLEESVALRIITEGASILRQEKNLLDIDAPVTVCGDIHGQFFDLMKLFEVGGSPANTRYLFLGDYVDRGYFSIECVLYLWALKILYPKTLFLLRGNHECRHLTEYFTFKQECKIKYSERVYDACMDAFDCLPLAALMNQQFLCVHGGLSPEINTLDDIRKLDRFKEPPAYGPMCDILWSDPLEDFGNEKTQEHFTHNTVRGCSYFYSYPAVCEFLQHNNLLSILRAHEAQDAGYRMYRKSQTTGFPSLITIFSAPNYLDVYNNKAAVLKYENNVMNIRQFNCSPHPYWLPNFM
Assay: direct binding by FA
Experimental: (§1) Fluorescence Polarization. Fluorescence polarization (FP) experiments were carried out to measure binding affinity in both direct and competitive binding experiments using GST-CN and peptides prepared as mentioned previously. […] Solutions were incubated for 1 h at RT with gentle mixing and then pipetted into black 384-well microplates. Fluorescence polarization was measured on a TECAN Infinite M1000 plate reader and titration curves were fitted using both KaelidaGraph v 3.6 and GraphPad PRISM to the equation: […]

Binder | fold lower CN-binding affinity (relative to peptide 14) [fold]
B1 | 8

Biological target: T1, calcineurin expressed as the …
Assay: fluorescence anisotropy (FA), direct binding

Binder | fold decrease in binding affinity (relative to peptide 9) [fold]
{Benzoyl(2,3-Cl2)}-[Tle]I[Tle]IT[miniPEG]K(FITC′) [peptide 12: Dcb-ZIZIT-miniPEG-Lys (FITC)] | 17

Biological target: T1, calcineurin expressed as the …
Assay: FP competition with FITC-labeled compound 35 for GST-CN
Experimental: (§2) Serial dilutions of unlabeled inhibitor were prepared in pH 7.4 PBS containing 0.01% Triton-X100, to which was added the incubation solution and mixed for 1 h at RT. 20 μL aliquots from each concentration were added into 384-well black-on-black microplates and fluorescence polarization was measured using a TECAN Infinite M1000 plate reader. IC50 values were calculated using GraphPad PRISM v. 7.

Binder | fold higher potency (relative to CNI103) [fold]
B2 | ~5

Biological target: T1, calcineurin expressed as the …
Assay: fluorescence anisotropy (FA), direct binding of FITC-labeled peptide
Experimental: as §1
(§3) Additional characterization of CNI95 (including in vivo evaluation) is currently ongoing.

Binder | Kd [nM]
B3 | 17

Biological target: T1, calcineurin expressed as the …
Assay: FA-based competition assay, inhibition of the binding of peptide 14 to CN
Experimental: (§4) Serial dilutions of competitor peptides were prepared in PBS with 0.01% Trition-X100 and then added to the incubation solution and equilibrated at RT with gentle mixing for 1 h. Samples were pipetted into 384-well black microplates and FP signal was measured using a TECAN Infinite M1000 plate reader and analyzed using GraphPad PRISM v.6.
as §3

Binder | fold higher potency (relative to CNI93) [fold]
B4 | ~5

Biological target: mouse plasma proteins
Assay: rapid equilibrium dialysis (RED) of CNI103 in mouse plasma, 37° C., 5 hours, LC/MS/MS

Binder | % Binding [%]
B5 | 97.6

Biological target: T1, calcineurin expressed as the …
Assay: fluorescence anisotropy (FA), direct binding of FITC-labeled peptide to GST-CN
Experimental: as §1

Binder | Kd [nM]
B6 | 189
{Benzoyl(2,3-Cl2)}-[Tle]I[Tle]ITGPHEEYK(FITC″)-NH2 [peptide 9: Dcb-ZIZITGPHEEYK(FITC)-NH2] | 41
{Benzoyl(2,3-Cl2)}-[Tle]I[Tle]ITY[dE][Phe(4-F)]G[βAla]K(FITC) [peptide 13: Dcb-ZIZIT-Tyr-glu-Fpa-Gly-βAla-Lys (FITC)] | 12
Bz-[Tle]I[Tle]ITGPHEEYK(FITC″)-NH2 [peptide 2: benzoyl-ZIZITGPHEEYK(FITC)-NH2] | 224
{Benzoyl(2,3-Cl2)}-[Tle]I[Tle]ITQH[dL]S[βAla]K(FITC″) (also called FITC-labeled peptide 14) [peptide 14: Dcb-ZIZIT-Gln-His-leu-Ser-βAla-Lys (FITC)] | 9.1
{Benzoyl(2,3-Cl2)}-[Tle]I[Tle]ITQH[dL]H[βAla]K(FITC″) [peptide 15: Dcb-ZIZIT-Gln-His-leu-His-βAla-Lys (FITC)] | 4.7
B7 | 74
{Benzoyl(2,3-Cl2)}-[Tle]I[Tle]IT[miniPEG]K(FITC′) [peptide 12: Dcb-ZIZIT-miniPEG-Lys (FITC)] | 700
B8 | 77
cyclohexylcarbonyl-[Tle]I[Tle]ITGPHEEYK(FITC″)-NH2 [peptide 4: cyclohexylcarbonyl-ZIZITGPHEEYK(FITC)-NH2] | 207
B9 | 32
Ac-GPHP[Tle]I[Tle]ITGPHEEYK(FITC″)-NH2 [peptide 1: Ac-GPHPZIZITGPHEEYK(FITC)-NH2] | 92
cyclopentylcarbonyl-[Tle]I[Tle]ITGPHEEYK(FITC″)-NH2 [peptide 3: cyclopentylcarbonyl-ZIZITGPHEEYK(FITC)-NH2] | 357

Biological target: T1, calcineurin expressed as the …
Assay: FP competition (Condition E): 50 nM probe, 50 nM CN-GST, unlabeled compound titrated
Experimental: Binding Affinity. […] Serial dilutions of each unlabeled compound were prepared in pH 7.4 PBS containing 0.01% Triton-X100, to which was added the incubation solution and mixed for 1 hr at RT after which 20 μL sample was pipetted into 384-well black-on-black microplates and fluorescence polarization was measured using a TECAN Infinite M1000 plate reader. IC₅₀ values were calculated using GraphPad PRISM v.

Binder | IC50 [nM]
B5 | 223
B10 | 857
B11 | 184

Biological target: T1, calcineurin expressed as the …
Assay: FA-based competition (FP): 50 nM FITC-labeled peptide 14 as probe, 100 nM GST-CN, competitor titrated
Experimental: as §4

Binder | IC50 [nM]
B12 | 426
B1 | 127

Biological target: T1, calcineurin expressed as the …
Assay: FP competition: 15 nM FITC-labeled compound 35 as probe, 15 nM GST-CN, unlabeled inhibitor titrated
Experimental: as §2

Binder | IC50 [nM]
B5 | 223
B13 | 107
B14 | 96.5
B2 | 44.9
B15 | 45.6
B16 | 73.5
B11 | 184

— US20240033318A1 (OHIO STATE INNOVATION FOUNDATION, published 2024)
